Measured values: article PMC314469, “Protein Interaction Networks by Proteome Peptide Scanning” (PLoS Biology, 2004)

T1: Boi1 SH3 (BOI1_YEAST), P38041
T1 chain: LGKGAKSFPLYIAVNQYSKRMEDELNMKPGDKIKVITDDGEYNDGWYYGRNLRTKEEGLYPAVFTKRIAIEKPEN

T2: Boi2 SH3 (BOI2_YEAST), P39969
T2 chain: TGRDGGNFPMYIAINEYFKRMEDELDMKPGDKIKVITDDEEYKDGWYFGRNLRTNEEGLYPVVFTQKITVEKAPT

T3: Rvs167 SH3 (RV167_YEAST), P39743
T3 chain: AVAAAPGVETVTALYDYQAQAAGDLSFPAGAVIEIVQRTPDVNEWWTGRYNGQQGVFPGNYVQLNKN

T4: Yfr024 SH3 (LSB3_YEAST), P43603
T4 chain: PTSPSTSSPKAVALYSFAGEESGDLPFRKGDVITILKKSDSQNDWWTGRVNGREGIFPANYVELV

T5: Yhr016c SH3 (YSC84_YEAST), P32793
T5 chain: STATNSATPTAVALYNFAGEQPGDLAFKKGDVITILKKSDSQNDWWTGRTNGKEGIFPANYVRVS

B1: YDR538W 48-61 (peptide)
chain: STSPPRPKRIVVAI
B2: YOR326W 1092-1105 (peptide)
chain: SVLPQTPLKDVMGG
B3: YPR018W 481-494 (peptide)
chain: TDGPIDPFKEPKTS
B4: YMR192W 200-213 (peptide)
chain: STPPTLPPRRIEDP
B5: YNR021W 264-277 (peptide)
chain: TDLPVNPPRDDKEW
B6: YER173W 28-41 (peptide)
chain: SSRPTSPVRKARST
B7: YNL321W 116-129 (peptide)
chain: TATPSSPKRMHSSI
B8: YPR040W 50-63 (peptide)
chain: TAAPATPPRHISNN
B9: YLR147C 88-101 (peptide)
chain: SSRPMPPIRGPKRR
B10: YLR430W 2218-2231 (peptide)
chain: SSSPFIPKKRKPRS
B11: YJR090C 50-63 (peptide)
chain: STRPQMPSRTRETA
B12: YHR182W 758-771 (peptide)
chain: SSTPTTPERPKRKS
B13: YHR164C 158-171 (peptide)
chain: SSTPIVPNRLKTVL
B14: YGR133W 86-99 (peptide)
chain: SSYPMNPPKISFMQ
B15: YPL249C 293-306 (peptide)
chain: STSPKLPPRGKQRE

Molecular target: T1, Boi1 SH3 (BOI1_YEAST), P38041
Experiment: SPOT array

Row | Binder | normalised SPOT signal, Boehringer light units (BLU); mean over the file's lines of this peptide
1 | B1 | 356
2 | B2 | 100
3 | B3 | 136
4 | B4 | 194
5 | B5 | 88.1
6 | B6 | 368
7 | B7 | 50.9
8 | B8 | 275
9 | B9 | 1100
10 | B10 | 76.5
11 | B11 | 311
12 | B12 | 818
13 | B13 | 56.2
14 | B14 | 17.1
15 | B15 | 5220

Molecular target: T2, Boi2 SH3 (BOI2_YEAST), P39969
Experiment: SPOT array

Row | Binder | normalised SPOT signal, Boehringer light units (BLU); mean over the file's lines of this peptide
16 | B1 | 79.7
17 | B2 | 10.3
18 | B3 | 58.5
19 | B4 | 44.5
20 | B5 | 46.1
21 | B6 | 73.1
22 | B7 | 36.1
23 | B8 | 41.4
24 | B9 | 376
25 | B10 | 92
26 | B11 | 43.5
27 | B12 | 36.8
28 | B13 | 10.8
29 | B14 | 111
30 | B15 | 90.9

Molecular target: T3, Rvs167 SH3 (RV167_YEAST), P39743
Experiment: SPOT array

Row | Binder | normalised SPOT signal, Boehringer light units (BLU); mean over the file's lines of this peptide
31 | B1 | 182
32 | B2 | 44.5
33 | B3 | 33.8
34 | B4 | 24400
35 | B5 | 56.5
36 | B6 | 98.3
37 | B7 | 81.7
38 | B8 | 13200
39 | B9 | 771
40 | B10 | 42.9
41 | B11 | 74.7
42 | B12 | 579
43 | B13 | 1490
44 | B14 | 65.4
45 | B15 | 57900

Molecular target: T4, Yfr024 SH3 (LSB3_YEAST), P43603
Experiment: SPOT array

Row | Binder | normalised SPOT signal, Boehringer light units (BLU); mean over the file's lines of this peptide
46 | B1 | 3980
47 | B2 | 179
48 | B3 | 0
49 | B4 | 27500
50 | B5 | 94.9
51 | B6 | 1780
52 | B7 | 534
53 | B8 | 30400
54 | B9 | 11600
55 | B10 | 1970
56 | B11 | 4030
57 | B12 | 58100
58 | B13 | 6570
59 | B14 | 440
60 | B15 | 20400

Molecular target: T5, Yhr016c SH3 (YSC84_YEAST), P32793
Experiment: SPOT array

Row | Binder | normalised SPOT signal, Boehringer light units (BLU); mean over the file's lines of this peptide
61 | B1 | 1340
62 | B2 | 127
63 | B3 | 0
64 | B4 | 49300
65 | B5 | 119
66 | B6 | 317
67 | B7 | 244
68 | B8 | 58900
69 | B9 | 1900
70 | B10 | 258
71 | B11 | 37.5
72 | B12 | 31700
73 | B13 | 1960
74 | B14 | 215
75 | B15 | 72500
